Data from US20200123233A1.

What was measured:
[1] = target: F protein of hRSV strain B-1 (human respiratory syncytial virus, strain B-1 (ATCC VR-1580)) (UniProt P13843); assay: cell-based or functional assay
[2] = target: F protein of hRSV strain Long (human respiratory syncytial virus, strain Long (ATCC VR-26)) (UniProt P12568); assay: cell-based or functional assay
[3] = target: FTM-NN (membrane anchorless form of the Long fusion protein, 70 kDa) (human respiratory syncytial virus, strain Long) (UniProt P12568)
[4] = target: FTM-NN (membrane anchorless form of the Long fusion protein, 70 kDa) (human respiratory syncytial virus, strain Long) (UniProt P12568); assay: SPR (Biacore), FTM-NN immobilised
[5] = target: F protein of RSV Long (RSV LONG M-2) (human respiratory syncytial virus, strain Long) (UniProt P12568); assay: cell-based or functional assay
[6] = target: F protein of RSV B-1 (human respiratory syncytial virus, strain B-1) (UniProt P13843); assay: cell-based or functional assay
[7] = target: F protein of RSV A-2 (human respiratory syncytial virus, strain A-2) (UniProt P03420); assay: cell-based or functional assay

Substance: Synagis (Palivizumab, MedImmune, humanized monoclonal antibody)
- Neutralization IC50 (nM), B-1 (first assay) [1]: 2.1 nM
- Neutralization IC50 (nM), B-1 (second assay) [1]: 2.9 nM
- Neutralization IC50 (nM), Long (first assay) [2]: 7.3 nM
- Neutralization IC50 (nM), Long (second assay) [2]: 6 nM

Substance: Numax Fab (Motavizumab or MEDI-524; WO 06/050166)
- IC50 [3]: 0.086 nM

Substance: Synagis® (Palivizumab, MedImmune, humanized monoclonal antibody)
- Kd [4]: 0.64 nM
- koff [4]: 0.00018 s⁻¹
- kon [4]: 280000 M⁻¹ s⁻¹
- RSV neutralization IC50 (nM) (n = 2), Long [5]: 4 nM
- RSV neutralization IC50 (nM) (n = 2), B1 [6]: 1.7 nM
- RSV neutralization IC50 (nM) (n = 2), A-2 [7]: 2.5 nM

Substance: Synagis Fab
- IC50 [3]: 0.597 nM

Substance: 101F Fab (WO 06/050280)
- IC50 [3]: 1.12 nM
